In US20260191981A1 (ARROWHEAD PHARMACEUTICALS, published 2026):

Tests used:
[1] = biological target: T1, his-tagged cTfR1 (Acro Biosystems p/n TFR-C524a) (cynomolgus monkey, UniProt H9EXL1 89-760 (rhesus entry)); experiment: SPR, Biacore X100, His-tagged TfR1 captured by anti-His
T1 construct: Bought reagent of the SPR assay
Description: Samples were analyzed via Surface Plasmon Resonance (SPR) to determine kinetics against cynomolgus monkey transferrin receptor 1 (cTfR1). Briefly, a Biacore X100 (Cytiva) was used for SPR measurements using a CM5 chip (carboxymethylated dextran surface, Cytiva p/n BR100399) with anti-histidine antibody irreversibly immobilized on the surface of both flow cells for the reversible capture of his-tagged cTfR1 (Acro Biosystems p/n TFR-C524a). The anti-histidine antibody was irreversibly immobilized via amine coupling using Cytiva provided Amine Coupling Kit (p/n BR100050) and His Capture Kit (p/n 28995056). […] Sample diluent was prepared in house and is composed of 10 mM HEPES buffer pH 7.4, 150 mM NaCl, 3 mM EDTA, and 0.05% Tween 20. Cytiva caps and vials compatible for Biacore X₁₀₀ were used for sample analysis. Each analysis cycle consists of a capture step followed by sample or blank injection, and finally a regeneration step that removes any sample and cTfR1 on the sensor surface. The capture step was performed at 5 μL/min with a contact time of 24 seconds over the active flow cell only, followed by a fluidics wash with 0.1% Tween 20. Generally, 2 μg/mL hTfR1 was a sufficient concentration to observe adequate hTfR1 captured consistently between cycles. Sample or buffer was injected at 30 μL/min with a contact time of 180 seconds and dissociation time of 180 seconds followed by a fluidics wash with 0.1% Tween 20. A 10 mM glycine solution at pH 1.5 (provided in His Capture Kit) was used for regeneration at 30 μL/min with a 60 second contact time. A cycle was performed for each sample concentration analyzed along with one cycle repeating one concentration for variability evaluation and 2-3 buffer cycles. Results were analyzed in Biacore Evaluation Software. Buffer cycles were averaged and subtracted from sample injections prior to kinetic fitting. A monovalent or kinetic fit was specified as relevant for the sample analyzed. Accuracy of the fit is evaluated and data points are excluded as applicable.

[2] = biological target: T2, human transferrin receptor 1 (hTfR1) (human, UniProt P02786 89-760, limits assumed); experiment: competition phage ELISA (phage-displayed Fab)
T2 construct: The selections used the biotinylated ECD domain of hTfR1

[3] = biological target: T3, cynomolgus monkey transferrin receptor 1 (cTfR1) (cynomolgus monkey, UniProt H9EXL1 89-760 (rhesus entry)); experiment: competition phage ELISA (phage-displayed Fab)
T3 construct: The ELISA against cTfR1 is not described in the text

[4] = biological target: T3, cynomolgus monkey transferrin receptor …; experiment: competition ELISA, Fab
[5] = biological target: T4, his-tagged hTfR1 (Acro Biosystems p/n CD1-H5243) (human, UniProt P02786 89-760); experiment: SPR, Biacore X100, His-tagged TfR1 captured by anti-His
T4 construct: Bought reagent of the SPR assay
Description: Samples were analyzed via Surface Plasmon Resonance (SPR) to determine kinetics against human transferrin receptor 1 (hTfR1). Briefly, a Biacore X100 (Cytiva) was used for SPR measurements using a CM5 chip (carboxymethylated dextran surface, Cytiva p/n BR100399) with anti-histidine antibody irreversibly immobilized on the surface of both flow cells for the reversible capture of his-tagged hTfR1 (Acro Biosystems p/n CD1-H5243). The anti-histidine antibody was irreversibly immobilized via amine coupling using Cytiva provided Amine Coupling Kit (p/n BR100050) and His Capture Kit (p/n 28995056). […] Sample diluent was prepared in house and is composed of 10 mM HEPES buffer pH 7.4, 150 mM NaCl, 3 mM EDTA, and 0.05% Tween 20. Cytiva caps and vials compatible for Biacore X100 are used for sample analysis. Each analysis cycle consists of a capture step followed by sample or blank injection, and finally a regeneration step that removes any sample and hTfR1 on the sensor surface. The capture step was performed at 5 μL/min with a contact time of 24 seconds over the active flow cell only, followed by a fluidics wash with 0.1% Tween 20. Generally, 2 μg/mL hTfR1 is a sufficient concentration to observe adequate hTfR1 captured consistently between cycles. Sample or buffer was injected at 30 μL/min with a contact time of 180 seconds and a dissociation time of 180 seconds followed by a fluidics wash with 0.1% Tween 20. A 10 mM glycine solution at pH 1.5 (provided in His Capture Kit) was used for regeneration at 30 μL/min with a 60 second contact time. A cycle was performed for each sample concentration analyzed along with one cycle repeating one concentration for variability evaluation and 2-3 buffer cycles. Results were analyzed in Biacore Evaluation Software. Buffer cycles were averaged and subtracted from sample injections prior to kinetic fitting. A monovalent or kinetic fit was specified as relevant for the sample analyzed. Accuracy of the fit was evaluated and data points are excluded as applicable. […]

[6] = biological target: T2, human transferrin receptor 1 (hTfR1); experiment: competition ELISA, Fab
[7] = biological target: T5, biotinylated cTfR1 (Acro Bio p/n TFR-C8249) (cynomolgus monkey, UniProt H9EXL1 89-760 (rhesus entry), biotinylated; site not stated); experiment: BLI, Octet RH16, biotinylated TfR1 on streptavidin sensor; Fab-siRNA conjugate
T5 construct: Bought reagent of the BLI assay
Description: Samples were analyzed via Bio-Layer Interferometry (BLI) to determine kinetics against cynomolgus monkey transferrin receptor 1 (cTfR1). Briefly, an Octet RH16 (Sartorius) was used for BLI measurements using streptavidin biosensors (Sartorius p/n 18-5019) to irreversibly immobilize biotinylated cTfR1 (Acro Bio p/n TFR-C8249). […] Sample diluent was prepared in house and is composed of 10 mM PBS pH 7.4 (150 mM NaCl), 0.01% BSA, 0.002% Tween 20, and 0.01% kathon. A 96-well plate was used for analysis, filled with required samples solutions and a row of 10 μg/mL cTfR1 for loading of the streptavidin sensors. For each sample, one well was reserved for a reference sensor control (non-specific binding evaluation with no cTfR1 on surface in highest sample concentration) and a sample reference (buffer only on a cTfR1 loaded sample). One well was also reserved for a second replicate of one of the five concentrations to evaluate sensor and method variability. Eight channels were used for the highest sensitivity offered by the Octet RH16. For each assay performed, the steps were as follows: a sensor check for baseline evaluation of sensor alone in buffer was performed for 30 seconds, followed by loading of the cTfR1 for 60 seconds, then a baseline check for 90 seconds to verify stability of cTfR1 immobilized to sensor surface, then sample association for 180 seconds, and finally sample dissociation for 300 seconds. A shake speed of 1000 was used for all steps. Sample results were analyzed in Octet Analysis software.

[8] = biological target: T6, biotinylated hTfR1 (Acro Bio p/n TFR-H82E5) (human, UniProt P02786 89-760, biotinylated; site not stated); experiment: as above
T6 construct: Bought reagent of the BLI assay
Description: Samples were analyzed via Bio-Layer Interferometry (BLI) to determine kinetics against human transferrin receptor 1 (hTfR1). Briefly, an Octet RH16 (Sartorius) was used for BLI measurements using streptavidin biosensors (Sartorius p/n 18-5019) to irreversibly immobilize biotinylated hTfR1 (Acro Bio p/n TFR-H82E5). […] Sample diluent was prepared in house and is composed of 10 mM PBS pH 7.4 (150 mM NaCl), 0.01% BSA, 0.002% Tween 20, and 0.01% kathon. A 96-well plate was used for analysis, filled with required samples solutions and a row of 10 μg/mL hTfR1 for loading of the streptavidin sensors. For each sample, one well was reserved for a reference sensor control (non-specific binding evaluation with no hTfR1 on surface in highest sample concentration) and a sample reference (buffer only on a hTfR1 loaded sample). One well was also reserved for a second replicate of one of the five concentrations to evaluate sensor and method variability. Eight channels were used for the highest sensitivity offered by the Octet RH16. For each assay performed, the steps were as follows: a sensor check for baseline evaluation of sensor alone in buffer was performed for 30 seconds, followed by loading of the cTfR1 for 60 seconds, then a baseline check for 90 seconds to verify stability of cTfR1 immobilized to sensor surface, then sample association for 180 seconds, and finally sample dissociation for 300 seconds. A shake speed of 1000 was used for all steps. Sample results are analyzed in Octet Analysis software.

T2 sequence (P02786 89-760 limits assumed): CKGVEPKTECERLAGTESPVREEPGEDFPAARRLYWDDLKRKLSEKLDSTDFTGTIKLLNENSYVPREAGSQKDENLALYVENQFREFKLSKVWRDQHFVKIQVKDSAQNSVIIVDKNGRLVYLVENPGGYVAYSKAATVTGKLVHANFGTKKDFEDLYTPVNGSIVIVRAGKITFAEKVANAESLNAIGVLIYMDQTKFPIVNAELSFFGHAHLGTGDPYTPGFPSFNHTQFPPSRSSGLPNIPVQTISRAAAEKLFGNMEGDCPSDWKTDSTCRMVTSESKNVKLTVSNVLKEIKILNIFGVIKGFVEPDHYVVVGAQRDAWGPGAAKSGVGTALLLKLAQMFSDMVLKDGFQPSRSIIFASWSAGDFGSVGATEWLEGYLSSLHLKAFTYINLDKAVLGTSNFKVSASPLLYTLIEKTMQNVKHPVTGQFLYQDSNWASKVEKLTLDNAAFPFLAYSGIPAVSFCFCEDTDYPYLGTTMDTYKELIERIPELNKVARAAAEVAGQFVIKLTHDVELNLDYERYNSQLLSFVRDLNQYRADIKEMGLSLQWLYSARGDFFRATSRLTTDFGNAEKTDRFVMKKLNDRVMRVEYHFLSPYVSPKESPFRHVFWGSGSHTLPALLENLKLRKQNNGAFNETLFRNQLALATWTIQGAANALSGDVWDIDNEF
T6 sequence (P02786 89-760 limits assumed): as above
T4 sequence (P02786 89-760 limits assumed): as above
T1 sequence (chain, as listed by the source): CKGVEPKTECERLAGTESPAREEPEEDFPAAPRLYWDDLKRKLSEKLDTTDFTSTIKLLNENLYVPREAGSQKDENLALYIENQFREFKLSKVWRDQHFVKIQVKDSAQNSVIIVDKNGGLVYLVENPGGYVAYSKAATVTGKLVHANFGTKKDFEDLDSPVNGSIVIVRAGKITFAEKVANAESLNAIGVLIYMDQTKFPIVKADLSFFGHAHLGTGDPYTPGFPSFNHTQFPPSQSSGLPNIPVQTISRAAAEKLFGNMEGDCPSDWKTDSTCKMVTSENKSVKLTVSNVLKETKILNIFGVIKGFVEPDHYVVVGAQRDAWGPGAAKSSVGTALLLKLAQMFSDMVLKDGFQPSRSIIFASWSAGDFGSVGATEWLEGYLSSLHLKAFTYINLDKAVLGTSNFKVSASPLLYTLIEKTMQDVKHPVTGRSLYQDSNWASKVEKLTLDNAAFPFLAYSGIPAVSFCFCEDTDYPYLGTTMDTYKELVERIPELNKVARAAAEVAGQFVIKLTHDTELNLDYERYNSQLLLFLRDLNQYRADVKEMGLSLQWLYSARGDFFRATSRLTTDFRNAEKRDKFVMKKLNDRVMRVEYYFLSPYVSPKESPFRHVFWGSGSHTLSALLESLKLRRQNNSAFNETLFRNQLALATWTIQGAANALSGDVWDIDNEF
T3 sequence (chain, as listed by the source): as above
T5 sequence (chain, as listed by the source): as above

Row | Binder | Kd [1] [nM] | koff [1] [s⁻¹] | kon [1] [M⁻¹ s⁻¹] | Kd [2] [nM] | Kd [3] [nM] | Kd [4] [nM] | Kd [5] [nM] | koff [5] [s⁻¹] | kon [5] [M⁻¹ s⁻¹] | Kd [6] [nM] | Kd [7] [nM] | koff [7] [s⁻¹] | kon [7] [M⁻¹ s⁻¹] | Kd [8] [nM] | koff [8] [s⁻¹] | kon [8] [M⁻¹ s⁻¹]
1 | Fab0061 (Fab, V domains shown) VH: EVQLVESGGGLVQPGGSLRLSCATSGYTFTSYWMHWVRQAPGKGLEWVAEINPTNGRVNYIEKFKSRITLSVDKSKSTVYLQMNSLRAEDTAVYYCARGTRAYHYWGQGTLVTVSS VL: DIQLTQSPSSLSASVGDRVTITCRASDGLYSNLAWYQQKPGKAPKLLIYDATKLASGVPSRFSGSGSGTDYTLTISSLQPEDFATYYCQHFWGTPLTFGQGTKVEIKR | 1.75 | 0.0037 | 2.11e+06 | 0.49 | 1.75 | 5.15 | 0.708 | 0.00101 | 1.42e+06 | 0.95 |  |  |  |  |  | 
2 | Fab0002-siRNA conjugate (Fab, V domains shown, siRNA-linker on a reduced cysteine; chain and residue not stated, also called Fab0002 (BLI conjugate columns)) VH: EVQLVQSGAEVKKPGASVKVSCKASGYTFTSYWMHWVRQAPGQRLEWIGEINPTNGRTNYIEKFKSRATLTVDKSASTAYMELSSLRSEDTAVYYCARGTRAYHYWGQGTMVTVSS VL: DIQMTQSPSSLSASVGDRVTITCRASDNLYSNLAWYQQKPGKSPKLLVYDATNLADGVPSRFSGSGSGTDYTLTISSLQPEDFATYYCQHFWGTPLTFGQGTKVEIKR |  |  |  |  |  |  |  |  |  |  | 25.1 | 0.00732 | 292000 | 16.7 | 0.00349 | 209000
3 | Fab0060 (Fab, V domains shown) VH: EVQLVESGGGLVQPGGSLRLSCATSGYTFTSYWVHWVRQAPGKGLEWVAEINPTNGRTNYIEKFKSRITLSVDKSKSTVYLQMNSLRAEDTAVYYCARGTRAYHYWGQGTLVTVSS VL: DIQLTQSPSSLSASVGDRVTITCRASDGLYSNLAWYQQKPGKAPKLLIYDATKLASGVPSRFSGSGSGTDYTLTISSLQPEDFATYYCQHFWGTPLTFGQGTKVEIKR | 2.71 | 0.00357 | 1.32e+06 | 0.49 | 1.56 | 4.58 | 0.907 | 0.00111 | 1.22e+06 | 0.81 |  |  |  |  |  | 

Second part, the binder after the results:

Row | Kd [1] [nM] | koff [1] [s⁻¹] | kon [1] [M⁻¹ s⁻¹] | Kd [2] [nM] | Kd [3] [nM] | Kd [4] [nM] | Kd [5] [nM] | koff [5] [s⁻¹] | kon [5] [M⁻¹ s⁻¹] | Kd [6] [nM] | Kd [7] [nM] | koff [7] [s⁻¹] | kon [7] [M⁻¹ s⁻¹] | Kd [8] [nM] | koff [8] [s⁻¹] | kon [8] [M⁻¹ s⁻¹] | Binder
4 | 2.45 | 0.00367 | 1.5e+06 | 0.34 | 2.02 | 5.04 | 0.754 | 0.00111 | 1.47e+06 | 0.67 |  |  |  |  |  |  | Fab0064 (Fab, V domains shown) VH: EVQLVESGGGLVQPGGSLRLSCATSGYTFTSYWMHWVRQAPGKGLEWVAEINPTNGRVNYIEKFKSRITLSVDKSKSTVYLQMNSLRAEDTAVYYCARGTRAYHYWGQGTLVTVSS VL: DIQLTQSPSSLSASVGDRVTITCRASDGLYSNLAWYQQKPGKAPKLLIYDAKNLASGVPSRFSGSGSGTDYTLTISSLQPEDFATYYCQHFWGTPLTFGQGTKVEIKR
5 | 3.22 | 0.00515 | 1.6e+06 | 0.65 | 3.48 | 9.14 | 0.993 | 0.00117 | 1.18e+06 | 1.1 |  |  |  |  |  |  | Fab0062 (Fab, V domains shown) VH: EVQLVESGGGLVQPGGSLRLSCATSGYTFTSYWMHWVRQAPGKGLEWVAEINPTNGRVNYIEKFKSRITLSVDKSKSTVYLQMNSLRAEDTAVYYCARGTRAYHYWGQGTLVTVSS VL: DIQLTQSPSSLSASVGDRVTITCRASDGLYSNLAWYQQKPGKAPKLLIYDAFNLASGVPSRFSGSGSGTDYTLTISSLQPEDFATYYCQHFWGTPLTFGQGTKVEIKR
6 | 2.72 | 0.00446 | 1.64e+06 | 0.48 | 2.63 | 5.57 | 0.598 | 0.00105 | 1.75e+06 | 0.67 |  |  |  |  |  |  | Fab0063 (Fab, V domains shown) VH: EVQLVESGGGLVQPGGSLRLSCATSGYTFTSYWMHWVRQAPGKGLEWVAEINPTNGRVNYIEKFKSRITLSVDKSKSTVYLQMNSLRAEDTAVYYCARGTRAYHYWGQGTLVTVSS VL: DIQLTQSPSSLSASVGDRVTITCRASDGLYSNLAWYQQKPGKAPKLLIYDATRLASGVPSRFSGSGSGTDYTLTISSLQPEDFATYYCQHFWGTPLTFGQGTKVEIKR
7 |  |  |  |  |  |  |  |  |  |  | 12.2 | 0.00321 | 264000 | 2.78 | 0.000793 | 286000 | Fab0074-siRNA conjugate (Fab, V domains shown, siRNA-linker on a reduced cysteine; chain and residue not stated, also called Fab0074 (BLI conjugate columns)) VH: EVQLVESGGGLVQPGGSLRLSCATSGYTFKSYWMHWVRQAPGKGLEWVAEINPTNGRTNYIEKFKSRITLSVDKSKSTVYLQMNSLRAEDTAVYYCARGTRAYHYWGQGTLVTVSS VL: DIQLTQSPSSLSASVGDRVTITCRASDGLYSNLAWYQQKPGKAPKLLIYDAKNLASGVPSRFSGSGSGTDYTLTISSLQPEDFATYYCQHFWGTPLTFGQGTKVEIKR
